In patent US20200407435A1 (Boehringer Ingelheim, published 2020):
Where a chain is given by its changes, count along the chain named. Where “and” joins values, the source holds several entries; their conditions need not be identical. Identical values can stand only once.

Legend:
[1] = biological target: T1, rhAngiopoietin-2 (R&D systems cat 623-AN/CF) (human, UniProt O15123 19-496, limits assumed); test: cell-based or functional assay
T1 sequence (looked up): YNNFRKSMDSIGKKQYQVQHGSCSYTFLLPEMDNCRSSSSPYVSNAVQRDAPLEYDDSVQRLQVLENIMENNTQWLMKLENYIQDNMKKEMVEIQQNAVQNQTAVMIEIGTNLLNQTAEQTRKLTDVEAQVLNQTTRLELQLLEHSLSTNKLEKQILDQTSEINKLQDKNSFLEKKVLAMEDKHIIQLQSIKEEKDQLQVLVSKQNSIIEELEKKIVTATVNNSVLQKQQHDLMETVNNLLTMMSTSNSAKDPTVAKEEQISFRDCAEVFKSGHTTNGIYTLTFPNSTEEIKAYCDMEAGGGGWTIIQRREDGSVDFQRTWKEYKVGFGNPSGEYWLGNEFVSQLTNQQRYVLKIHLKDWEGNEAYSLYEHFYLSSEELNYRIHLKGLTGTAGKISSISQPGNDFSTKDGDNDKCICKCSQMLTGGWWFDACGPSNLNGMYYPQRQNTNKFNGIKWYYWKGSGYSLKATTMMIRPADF

rabbit ANGPT2 = biological target: T2, rabbit ANGPT2 (rabbit, UniProt G1T9B3 275-496); test: SPR (ProteOn XPR36), antibody captured on Protein A/G, rabbit ANGPT2 as analyte
T2 construct: domain: FLD domain; also called rabbit ANGPT2 FLD domain
T2 sequence: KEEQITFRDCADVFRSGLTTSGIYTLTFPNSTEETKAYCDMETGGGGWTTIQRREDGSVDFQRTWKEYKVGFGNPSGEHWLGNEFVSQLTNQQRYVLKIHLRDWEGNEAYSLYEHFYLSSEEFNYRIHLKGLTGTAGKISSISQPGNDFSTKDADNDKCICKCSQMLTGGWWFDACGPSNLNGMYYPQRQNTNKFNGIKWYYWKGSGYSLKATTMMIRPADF
Experimental: The binding affinity to the various ANGPT2 analytes is determined by surface plasmon resonance (SPR) using a ProteOn XPR36 (Bio-Rad). Unless otherwise stated, all reagents are obtained from Bio-Rad. The running buffer for all assays and dilutions (except where stated) is phosphate buffered saline (PBS)/ethylenediamine tetraacetic acid (EDTA) with 0.01% Tween20 (PBS-T-EDTA). PBS-T-EDTA is prepared by adding 100 μl of 100% Tween20 to 2 L of PBS-T-EDTA with an initial concentration of 0.005% Tween20 to make a final Tween20 concentration of 0.01%. The general linearized model (GLM) sensorchip is normalized, pre-conditioned, and activated with an equal mixture of 1-ethyl-3-[3-dimethylaminopropyl]carbodiimide (EDC)/N-hydroxysulfosuccinimide (s-NHS) in the horizontal direction for 300 sec at a flow rate of 30 μl/min. Immobilization is then is done with Recombinant Protein A/G (Thermo Scientific) (60 μg/ml in 10 mM acetate pH 4.5) in the horizontal direction for 300 sec at a flowrate of 30 μl/min resulting in about 4370-4875 response units (RUs) of Protein A/G on the surface. The sensorchip is then deactivated with 1M ethanolamine HCl in the horizontal direction for 300 sec at a flowrate of 30 μl/min. The sensorchip is stabilized with 18 sec of 0.85% phosphoric acid at a flowrate of 100 μl/min 3 times horizontally and 3 times vertically. […]

[2] = biological target: T3, human ANGPT2 (SPR analyte) (human, UniProt O15123 275-496, limits assumed); test: SPR (ProteOn XPR36), antibody captured on Protein A/G, ANGPT2 as analyte, 1:1 Langmuir fit
T3 construct: domain: FLD domain; also called HuANGPT2; human ANGPT2 FLD domain
T3 sequence (looked up): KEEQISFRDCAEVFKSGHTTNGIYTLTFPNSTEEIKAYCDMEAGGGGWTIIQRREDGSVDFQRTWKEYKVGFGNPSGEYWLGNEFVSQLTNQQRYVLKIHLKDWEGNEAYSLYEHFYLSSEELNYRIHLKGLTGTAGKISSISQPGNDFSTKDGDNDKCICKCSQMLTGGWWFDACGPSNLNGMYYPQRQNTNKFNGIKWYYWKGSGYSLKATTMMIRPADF
Experimental: (§1) The binding affinity to the various ANGPT2 analytes is determined by surface plasmon resonance (SPR) using a ProteOn XPR36 (Bio-Rad). Unless otherwise stated, all reagents are obtained from Bio-Rad. The running buffer for all assays and dilutions (except where stated) is phosphate buffered saline (PBS)/ethylenediamine tetraacetic acid (EDTA) with 0.01% Tween20 (PBS-T-EDTA). PBS-T-EDTA is prepared by adding 100 μl of 100% Tween20 to 2 L of PBS-T-EDTA with an initial concentration of 0.005% Tween20 to make a final Tween20 concentration of 0.01%. The general linearized model (GLM) sensorchip is normalized, pre-conditioned, and activated with an equal mixture of 1-ethyl-3-[3-dimethylaminopropyl]carbodiimide (EDC)/N-hydroxysulfosuccinimide (s-NHS) in the horizontal direction for 300 sec at a flow rate of 30 μl/min. Immobilization is then is done with Recombinant Protein A/G (Thermo Scientific) (60 μg/ml in 10 mM acetate pH 4.5) in the horizontal direction for 300 sec at a flowrate of 30 μl/min resulting in about 4370-4875 response units (RUs) of Protein A/G on the surface. The sensorchip is then deactivated with 1M ethanolamine HCl in the horizontal direction for 300 sec at a flowrate of 30 μl/min. The sensorchip is stabilized with 18 sec of 0.85% phosphoric acid at a flowrate of 100 μl/min 3 times horizontally and 3 times vertically.
(§2) Each ANGPT2 antibody is captured on the Protein A/G surface vertically for 300 sec at a flowrate of 30 μl/min resulting in a capture level of about 2500 RU. The baseline is stabilized by injecting PBS-T-EDTA for 60 sec at a flowrate of 100 μl/min horizontally with dissociation of 120 sec. The analyte (e.g., HuANGPT2) is injected horizontally over the captured antibody for 300 sec at a flowrate of 30 μl/min and a dissociation for 1800 sec. […] The surface is regenerated by injecting 0.85% phosphoric acid for 18 sec at a flowrate of 100 μl/min one time horizontally and one time vertically. PBS-T-EDTA is injected for 60 sec at a flowrate of 100 μl/min one time vertically and one time horizontally.
(§3) The interspot (interactions with sensor surface) and blank (PBS-T-EDTA with 0.01% Tween20 or 0 nM of analyte (here HuANGPT2)) are subtracted from the raw data.

cynomolgus (cyno) ANGPT2 = biological target: T4, cynomolgus (cyno) ANGPT2 (cynomolgus, UniProt A0A2K5VNX6 275-496); test: as above
T4 construct: domain: FLD domain; also called cyno ANGPT2 FLD domain
T4 sequence: T3 sequence (looked up) with E2G, I23V, F28L, I35V, G154A, A212G, D221G
Experimental: as §1, §2, §3

[3] = biological target: T5, Human ANGPT2 Dimer (CC-FLD) (human, UniProt O15123 74-496, limits assumed); test: flow cytometry blocking assay: antibody titrated against His-tagged human ANGPT2 dimer (CC-FLD) binding to HEK293 human Tie2 cells
T5 construct: domain: CC-FLD; also called ANGPT2 protein with His-tag; not shown: His-tag
T5 sequence (looked up): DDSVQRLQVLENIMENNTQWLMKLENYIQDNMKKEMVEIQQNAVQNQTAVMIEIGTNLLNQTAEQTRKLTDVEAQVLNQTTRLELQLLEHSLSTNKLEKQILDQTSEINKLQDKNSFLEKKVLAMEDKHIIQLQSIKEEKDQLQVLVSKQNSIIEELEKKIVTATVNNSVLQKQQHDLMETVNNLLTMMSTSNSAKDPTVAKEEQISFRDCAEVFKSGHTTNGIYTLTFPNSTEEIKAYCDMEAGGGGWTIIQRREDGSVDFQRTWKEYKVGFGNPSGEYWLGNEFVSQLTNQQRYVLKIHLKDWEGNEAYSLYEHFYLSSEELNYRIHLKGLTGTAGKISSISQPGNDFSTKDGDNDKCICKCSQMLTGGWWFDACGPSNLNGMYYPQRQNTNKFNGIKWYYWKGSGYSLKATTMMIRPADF
Experimental: Human ANGPT2 Dimer (CC-FLD) is pre-incubated with the testing antibodies. The ANGPT2/Antibody mixture is then incubated with HEK293 human Tie2 cells at 4° C. After washing, the cells are stained with anti-His-AF647 (from GenScript) for detection of the His-tag on the ANGPT2 protein. The binding of the secondarily labelled ANGPT2 to human Tie2 cells is detected by FLOW cytometry. The average of the duplicate values for each concentration point is used to derive the curve fit graphs. Antibodies that prevent ANGPT2 from binding to the Tie2 cells are considered blocking antibodies. The results are shown in FIGS. 3A-3G and the EC50 values are shown in Table 5 based on the average of duplicate values.

B1: ANGPT2-opt-13 (humanized) (antibody, human IgG1, kappa, V domains shown)
VH: QVQLVQSGAEVKKPGSSVKVSCKASGYIFIDYFINWVRQAPGQGLEWMGKIGPGSGSSSSNEKFKGRVTITADKSTSTAYMELSSLRSEDTAVYYCAREAFDYDGDYYGMAYWGQGTLVTVSS
VL: EIVMTQSPATLSVSPGERATLSCKSSQSLLSSGNQKSFLAWYQQKPGQAPRLLIYGASTRETGIPARFSGSGSGTEFTLTISSLQSEDFAVYYCQNDHSYPITFGQGTKLEIKR
notes: also called Ang2-opt-13; ANGPT-opt-13
Q: Which results are given for B1?
A: Tie2 phosphorylation functional assay, EC50 [1]: 4.2 nM and 4 nM; Kd (rabbit ANGPT2): 0.133 nM; Kd [2]: 0.144 nM; koff [2]: 1.89e-05 s⁻¹; kon [2]: 132000 M⁻¹ s⁻¹; Kd (cynomolgus (cyno) ANGPT2): 0.146 nM; koff (cynomolgus (cyno) ANGPT2): 2.08e-05 s⁻¹; kon (cynomolgus (cyno) ANGPT2): 142000 M⁻¹ s⁻¹; EC50 [3]: 13 nM
